Measured values: publication PMC2323298

Molecular target: Mouse monoclonal antibody 1F9 (isotype IgG2b with a Kappa light chain)
Assay: phage ELISA
Details: immobilized 1F9; phage dilution 5 (first point of the series); duplicate; parent: est. 0.88; read off a plot

Substance: 3D7 AMA1 domain I expressed on M13 phage D204N
- response (absorbance 450 nm): 0.06

Substance: 3D7 AMA1 domain I expressed on M13 phage F201V
- response (absorbance 450 nm): 0.06

Substance: 3D7 AMA1 domain I expressed on M13 phage F201L
- response (absorbance 450 nm): 0.53

Substance: 3D7 AMA1 domain I expressed on M13 phage H200L
- response (absorbance 450 nm): 0.17

Substance: 3D7 AMA1 domain I expressed on M13 phage N228K
- response (absorbance 450 nm): 0.38
